Data reported in paper PMC7015241, “Myopalladin promotes muscle growth through modulation of the serum response factor pathway” (Journal of Cachexia, Sarcopenia and Muscle, 2019).

Target: Filamentous actin (F-actin) (rabbit, UniProt P68135 1-377)
Assay: co-sedimentation; 1–30 μM polymerized actin incubated with 10 μM MYPN Ig3, Ig4 or Ig3–4 domain for 1 h in 100 μL, 150 000×g for 30 min; SDS-PAGE of supernatants and pellets, densitometry; F-buffer (Tris, KCl, MgCl2, DTT, pH 8.0)
Settings: both partners purified

B1: Myopalladin (MYPN) Ig3-4 tandem domain (domain or fragment)
chain: PIFDKRLKHFRVTEGSPVTFTCKIVGIPVPKVYWFKDGKQISKRNEHCKMRREGDGTCSLHIESTTSDDDGNYTIMAANPQGRISCSGHLMVQSLPIRSRLTSAGQSHRGRSRVQERDKEPLQERFFRPHFLQAPGDMVAHEGRLCRLDCKVSGLPPPELTWLLNGQPVLPDASHKMLVRETGVHSLLIDPLTQRDAGTYKCIATNKTGQNSFSLELS
Kd: 4.6 µM
